Laboratory results as given in patent publication US20080234471A1.

What was measured:
GnGn-peptide [1] = biological target: GnGn-peptide
GnGn-peptide [2] = biological target: GnGn-peptide; remark: listed apart in the source

Specific activity (GnGn-peptide [1]) [mU/mg]	Km-Value (GnGnF^6-peptide) [µM]	Rel. Activity (MM-peptide) [%]	Km-Value (GnGn-peptide [2]) [µM]	Substance
43400				GlcNAc-α1,3-fucosyl transferase isolated from mung bean seedlings (enzyme)
	130	0	190	recombinant GlcNAc-α1,3-fucosyl transferase (enzyme)
